This is an account of results in doi:10.1101/2021.08.20.457142.

First the molecules themselves.
B1: MKK6 D-site peptide / p38-alpha (MAPK14) L195A, full length (parent complex)
chain 1: SQSKGKKRNPGLKIPKEAFEQP
chain 2: MSQERPTFYRQELNKTVWEVPERYQNLSPVGSGAYGSVCAAFDTKTGHRVAVKKLSRPFQSIIHAKRTYRELRLLKHMKHENVIGLLDVFTPARSLEEFNDVYLVTHLMGADLNNIVKCQKLTDDHVQFLIYQILRGLKYIHSADIIHRDLKPSNLAVNEDCELKILDFGLARHTDDEMTGYVATRWYRAPEIMANWMHYNQTVDIWSVGCIMAELLTGRTLFPGTDHIDQLKLILRLVGTPGAELLKKISSESARNYIQSLAQMPKMNFANVFIGANPLAVDLLEKMLVLDSDKRITAAQALAHAYFAQYHDPDDEPVAEPYDQSFESRDFLIDEWKSLTYDEVISFVPPPLDQEEMES
B2: MKK7 D-site peptide (second D-site) / JNK1 alpha1 (MAPK8 isoform 1) L198A, full length (parent complex)
chain 1: SQPQRPRPTLQLPLANEAFEQP
chain 2: MSRSKRDNNFYSVEIGDSTFTVLKRYQNLKPIGSGAQGIVCAAYDAILERNVAIKKLSRPFQNQTHAKRAYRELVLMKCVNHKNIIGLLNVFTPQKSLEEFQDVYIVMELMDANLCQVIQMELDHERMSYLLYQMLCGIKHLHSAGIIHRDLKPSNIVVKSDCTLKILDFGLARTAGTSFMMTPYVVTRYYRAPEVIAGMGYKENVDLWSVGCIMGEMVCHKILFPGRDYIDQWNKVIEQLGTPCPEFMKKLQPTVRTYVENRPKYAGYSFEKLFPDVLFPADSEHNKLKASQARDLLSKMLVIDASKRISVDEALQHPYINVWYDPSEAEAPPPKIPDKQLDEREHTIEEWKELIYKEVMDLEERTKNGVIRGQPSPLAQVQQ

In the first assay the parent is B1.
Take chain 1 S3N: the screen value was 1.29 Z-score of the enrichment rate within one screen of 711 sequences.

On to chain 1 S3P, for which the screen value was 1.6 Z-score of the enrichment rate within one screen of 711 sequences.

chain 1 S3A, chain 1 K13A: the screen value was -0.319 Z-score of the enrichment rate within one screen of 711 sequences.

With chain 1 G5A, chain 1 K7A, the screen value is 0.268 Z-score of the enrichment rate within one screen of 711 sequences.

Take chain 1 K4H: the screen value was 0.888 Z-score of the enrichment rate within one screen of 711 sequences.

For the variant chain 1 K4V, the screen value was 0.981 Z-score of the enrichment rate within one screen of 711 sequences.

On to chain 1 K13F, for which the screen value was 0.119 Z-score of the enrichment rate within one screen of 711 sequences.

Take chain 1 R8A, chain 1 I14A: the screen value was -0.878 Z-score of the enrichment rate within one screen of 711 sequences.

As to chain 1 N9A, chain 1 P10A, the screen value was 0.315 Z-score of the enrichment rate within one screen of 711 sequences.

Regarding chain 1 K16D, the screen value is -0.827 Z-score of the enrichment rate within one screen of 711 sequences.

On to chain 1 K16I, for which the screen value was 1.8 Z-score of the enrichment rate within one screen of 711 sequences.

On to chain 1 K7V, for which the screen value was 0.633 Z-score of the enrichment rate within one screen of 711 sequences.

Regarding chain 1 G11M, the screen value was 1.24 Z-score of the enrichment rate within one screen of 711 sequences.

As for chain 1 G11R, the screen value is 1.68 Z-score of the enrichment rate within one screen of 711 sequences.

Turning to chain 1 G11A, the screen value was 1.13 Z-score of the enrichment rate within one screen of 711 sequences.

Take chain 1 L12F: the screen value was -0.853 Z-score of the enrichment rate within one screen of 711 sequences.

In the case of chain 1 L12K, the screen value is -1.3 Z-score of the enrichment rate within one screen of 711 sequences.

For the variant chain 1 L12V, the screen value was -0.424 Z-score of the enrichment rate within one screen of 711 sequences.

For the variant chain 1 L12N, the screen value was -1.37 Z-score of the enrichment rate within one screen of 711 sequences.

chain 1 G5W: the screen value is 4.45 Z-score of the enrichment rate within one screen of 711 sequences.

As to chain 1 N9A, chain 1 G11A, the screen value was 1.02 Z-score of the enrichment rate within one screen of 711 sequences.

In the case of chain 1 P10C, the screen value was 0.201 Z-score of the enrichment rate within one screen of 711 sequences.

Regarding chain 1 I14G, the screen value was -1.29 Z-score of the enrichment rate within one screen of 711 sequences.

For chain 1 I14S, the screen value is -1.38 Z-score of the enrichment rate within one screen of 711 sequences.

For the variant chain 1 I14W, the screen value is -0.82 Z-score of the enrichment rate within one screen of 711 sequences.

With chain 1 I14P, the screen value is -0.823 Z-score of the enrichment rate within one screen of 711 sequences.

chain 1 R8Y: the screen value is 0.157 Z-score of the enrichment rate within one screen of 711 sequences.

For chain 1 N9H, the screen value is 1.51 Z-score of the enrichment rate within one screen of 711 sequences.

As to chain 1 R8A, chain 1 G11A, the screen value is -0.109 Z-score of the enrichment rate within one screen of 711 sequences.

Turning to chain 1 G11A, chain 1 K16A, the screen value was 0.278 Z-score of the enrichment rate within one screen of 711 sequences.

Regarding chain 1 K6R, the screen value is 1.9 Z-score of the enrichment rate within one screen of 711 sequences.

A further assay covers variants of B2.
For chain 1 P8T, the screen value was 0.655 Z-score of the enrichment rate within one screen of 711 sequences.

With chain 1 P8D, the screen value is 0.613 Z-score of the enrichment rate within one screen of 711 sequences.

chain 1 P8A: the screen value was 0.456 Z-score of the enrichment rate within one screen of 711 sequences.

chain 1 P8S: the screen value was 0.564 Z-score of the enrichment rate within one screen of 711 sequences.

On to chain 1 P8E, for which the screen value is 0.296 Z-score of the enrichment rate within one screen of 711 sequences.

For chain 1 P8A, chain 1 L12A, the screen value was -0.717 Z-score of the enrichment rate within one screen of 711 sequences.

In the case of chain 1 P3A, chain 1 Q11A, the screen value was 1.08 Z-score of the enrichment rate within one screen of 711 sequences.

For chain 1 T9A, chain 1 P13A, the screen value is 0.848 Z-score of the enrichment rate within one screen of 711 sequences.

Take chain 1 P3A, chain 1 Q4A: the screen value was 1.61 Z-score of the enrichment rate within one screen of 711 sequences.

In the case of chain 1 N16D, the screen value was 1.03 Z-score of the enrichment rate within one screen of 711 sequences.

In the case of chain 1 N16S, the screen value is 1.15 Z-score of the enrichment rate within one screen of 711 sequences.

Take chain 1 N16K: the screen value is 1.7 Z-score of the enrichment rate within one screen of 711 sequences.

chain 1 N16Y: the screen value was 1.82 Z-score of the enrichment rate within one screen of 711 sequences.

Consider chain 1 N16M, for which the screen value is 1.27 Z-score of the enrichment rate within one screen of 711 sequences.

For the variant chain 1 N16Q, the screen value was 1.61 Z-score of the enrichment rate within one screen of 711 sequences.

For chain 1 N16R, the screen value was 1.4 Z-score of the enrichment rate within one screen of 711 sequences.

Consider chain 1 P3A, chain 1 P13A, for which the screen value was 1.51 Z-score of the enrichment rate within one screen of 711 sequences.

For the variant chain 1 Q11V, the screen value was 1.38 Z-score of the enrichment rate within one screen of 711 sequences.

For chain 1 Q11M, the screen value is 1.43 Z-score of the enrichment rate within one screen of 711 sequences.

Regarding chain 1 Q11R, the screen value was 1.59 Z-score of the enrichment rate within one screen of 711 sequences.

As for chain 1 Q11D, the screen value is 1.71 Z-score of the enrichment rate within one screen of 711 sequences.

Regarding chain 1 Q11S, the screen value is 1.45 Z-score of the enrichment rate within one screen of 711 sequences.

Take chain 1 Q11A: the screen value is 1.44 Z-score of the enrichment rate within one screen of 711 sequences.

As for chain 1 Q11F, the screen value is 2.16 Z-score of the enrichment rate within one screen of 711 sequences.

With chain 1 Q11P, the screen value is 0.901 Z-score of the enrichment rate within one screen of 711 sequences.

Regarding chain 1 R7A, chain 1 Q11A, the screen value was 0.044 Z-score of the enrichment rate within one screen of 711 sequences.

For the variant chain 1 L10A, chain 1 N16A, the screen value was -0.696 Z-score of the enrichment rate within one screen of 711 sequences.

Turning to chain 1 R7D, the screen value is -0.584 Z-score of the enrichment rate within one screen of 711 sequences.

Consider chain 1 R7H, for which the screen value was 0.435 Z-score of the enrichment rate within one screen of 711 sequences.

On to chain 1 R7W, for which the screen value was 0.391 Z-score of the enrichment rate within one screen of 711 sequences.

For the variant chain 1 R7S, the screen value is -0.155 Z-score of the enrichment rate within one screen of 711 sequences.

For the variant chain 1 T9A, chain 1 L10A, the screen value was -0.519 Z-score of the enrichment rate within one screen of 711 sequences.

For chain 1 P13G, the screen value is 0.542 Z-score of the enrichment rate within one screen of 711 sequences.

On to chain 1 P13F, for which the screen value is 1.62 Z-score of the enrichment rate within one screen of 711 sequences.

chain 1 P13E: the screen value is 1.34 Z-score of the enrichment rate within one screen of 711 sequences.

Turning to chain 1 P13M, the screen value is 1.22 Z-score of the enrichment rate within one screen of 711 sequences.

In the case of chain 1 P13K, the screen value was 1.72 Z-score of the enrichment rate within one screen of 711 sequences.

For the variant chain 1 P13R, the screen value is 1.24 Z-score of the enrichment rate within one screen of 711 sequences.

In the case of chain 1 P13T, the screen value is 1.03 Z-score of the enrichment rate within one screen of 711 sequences.

With chain 1 Q4A, chain 1 L12A, the screen value is -0.309 Z-score of the enrichment rate within one screen of 711 sequences.

chain 1 L12A, chain 1 L14A: the screen value was -0.584 Z-score of the enrichment rate within one screen of 711 sequences.

Take chain 1 L12D: the screen value is -0.686 Z-score of the enrichment rate within one screen of 711 sequences.

For the variant chain 1 L12Y, the screen value was -0.861 Z-score of the enrichment rate within one screen of 711 sequences.

As for chain 1 L12M, the screen value was 0.011 Z-score of the enrichment rate within one screen of 711 sequences.
